Data on 30 sequences can be found in the nanobody polyreactivity screen of Harvey et al. (2022).

This data set can be described thus: yeast display, Sf9 membrane polyspecificity reagent, FACS + sequencing; frameworks hold sequencing errors. The method in brief: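 Polyreactivity labels are assigned by the sorting gate from which each nanobody was recovered. The gates were low and high (top ~1%), set on anti-HA fluorescence for expression and streptavidin fluorescence for reagent binding. Before sorting, galactose-induced (36–48 hours) yeast display cells were stained for 1 hour at 4 °C with 10% biotinylated, detergent-solubilized Sf9 membrane reagent.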
Take “QVQLLESGGGLVQAGGSLRLSCAASGSTFPRNAMGWYRQAPGKERELVATITSSGGGTYYADSVKGRFTISRDNAKNTVYLQMNSLKPEDTAVDYCNADGPAGDAFDYWGQGTQVTVSS”: the “polyreactivity (PSR sort gate)” value was “low polyreactivity”.

On to “QVQLLESGGGLVQAGGSLRLSCAASGSTIRVNGMGWYRQAPGKERELVAVISWSGGSTYYADSVKGRFTISRDNAKNTVYLQMNSLKPEDTAVYYCNKLIYDEDEYWGQGTQVSVSS”, for which the “polyreactivity (PSR sort gate)” value is “high polyreactivity”.

In the case of “QVQLLESGGGLVQAGGSLRLSCAASGYTFKAYAMGWYRQAPGKERELVAAISRGGRTNYADSVKGRFTISRDNAKYTVYLQMNSLKPEDTAVYYCNTQRQLGERFYDRSRQGDYWGHGTQVTVSS”, the “polyreactivity (PSR sort gate)” value is “high polyreactivity”.

“QVQLLESGGGLVQAGGSLRLSCAASGYTFRFNAMGWNRQAPGKETEFVAAIDFGGAGTYYADSVKGRFTISRDNAKNTVYLQMNSLKPEDTAVYYCNARDGVTTEFDYWGQVTQVTVSS”: the “polyreactivity (PSR sort gate)” value is on record as “low polyreactivity”.

As for “QVQLLESGGGLVQAGGSLRLSCAAYGSTFGYNDMGWYRQAPGKVRELVAAITRRSGSTYYADSVKGRFTISRDNAKNSVNLQMNSLKPEDTAVYYCAASYHYGDRWPIRMDYWGQGTQVTVSS”, the “polyreactivity (PSR sort gate)” value was “low polyreactivity”.

As for “QVQLLESGGGLVQAGGSLRLTCAASGSTFKRYAMGWYRQAPGKERELVAAITTSGGSTYYADSVKGRFTISRDNAKNTVYLQMNSLEPEDTAVYYCAAVWPGRRTTNYYFPGHGYQYGYWGQGTQVTVSS”, the “polyreactivity (PSR sort gate)” value was “high polyreactivity”.

In the case of “QVQLLESGGGLVQAGGSLRLTCAASGSTFSPNAMGWYRQAPGKERELVAAITYRGANTYYADSVKGRFTISRDNAKITVYLQMNSLKPEDTAVYYCDAEYAYHHVGFGYWGQGTQVTVSS”, the “polyreactivity (PSR sort gate)” value is given as “low polyreactivity”.

Regarding “QVQLLESGGGLVQAGGSVRLSCAASGFTYRYYAMGWYRQEPGKERELVASISFSGTRTYYADSVKGRFTISRDNAKNTVFLQMNSLKPHDTAVDYCNACLYSRYEFDYWGQGSQVTVSS”, the “polyreactivity (PSR sort gate)” value is given as “high polyreactivity”.

Regarding “QVQLLESGGGLVQAGGTLRLSCAASGITFTVYTMGWYRQAPGKERELVAAIDSDGITNYADSVKGRFTISRDNAKNTVYLQMNSLKPEDTAVYYCAKQSGRADGVSGFDYWGQGTQVTVSS”, the “polyreactivity (PSR sort gate)” value is on record as “low polyreactivity”.

For “QVQLLESGGGLVQAGGTLRLSCAASGRISWYNAMGWYRQAPGKERELVAAIRGGGSTHYADSVKGRFTISRDNAKNTVYLQMNSLKPEDTAVYYCAAYLYYPFYWWRDYWGQGTQVTVSS”, the “polyreactivity (PSR sort gate)” value is “high polyreactivity”.

For “QVQLLESGGGLVQAGRSLRLSCAASGSIFWYAMGWYRQAPGKERELVATITSGASTTYADSVKGRFTISRDNAKNTVYLQMNSLNPEDTAVYYCAKRNYLSYRYDYWGQGTQVNVSS”, the “polyreactivity (PSR sort gate)” value is given as “low polyreactivity”.

On to “QVQLLESGGGLVQARGSLRLSCAASGRILEGYAMGWYRPAPGKERELVAALSFSTTPTYYADSVKGRFTISRDNAKNTVYLQMYSLKPEDTAVDYCAADSQQSDYDYWGQGSQVTVSS”, for which the “polyreactivity (PSR sort gate)” value is on record as “high polyreactivity”.

Turning to “QVQLLESGGGLVQARGSLRLSCAASGRNFVPYVMGWYRQAPGKERELVASISDSDTSTYYADSVKGRFTISRDNAKNTVYLQMNSLKPEDTAVYYCNVDYWGQGTQVTVSS”, the “polyreactivity (PSR sort gate)” value is reported as “low polyreactivity”.

Consider “QVQLLESGVGLVQAGGTLRLSCAASGRTFYRNAMGWYRQATGKEREMVAAISQSGGSTYYADSVKGRFTISRDNAKNTVYLQMNSLKPEDTAVYYCAAGNSRRVGMDYWGQGTQVTVSS”, for which the “polyreactivity (PSR sort gate)” value is “high polyreactivity”.

Turning to “QVQLLESWGGLVHAGGSLRLSCAASGRIIYRYAMGWSRQAPGNERELVAGISNAGGSTYYADSVKGRFTISRDNAKNTVYLQMNSLKPEDTAVYYCATGPSYRYDKGGGRSRYYYWGQGTQVTVSS”, the “polyreactivity (PSR sort gate)” value is listed as “high polyreactivity”.

For “QVQLLESWGGLVQAGGSLRLSCAASGRTSTRNAMGWSRQAPGKERELVAAISWSGGRTHYADSVKWRFTISRDNAMNYVYYQMNSLKQEATAVYYCAAAYTGGQYYYSWGQGTQVSVSS”, the “polyreactivity (PSR sort gate)” value is recorded as “high polyreactivity”.

“QVQLLETGAGLVHAGGSLRLSCAAYGFIFRDYAMGCYRQAPGKERELVAAIYYSGGSTYYADSVKGRFTISRDNAKNTVYLQLNSLKPEDTAVYYCNAVNPYYAPTDRRVGYDYWGQGTQVTVSS”: the “polyreactivity (PSR sort gate)” value is reported as “high polyreactivity”.

Turning to “QVQLLETGRGLVQAGGSLRLSCASSGSIFFLYAMGWYRQAPGKERELVAAINWRTGRTYYADSVKWRFTISRDNAKNTVYFQMNSLKPEDTEVYYCAARSVPSPERGFYYWGQGTQVTVSS”, the “polyreactivity (PSR sort gate)” value is given as “high polyreactivity”.

In the case of “QVQLQDSGGGLVQAGGSLRQNCETSGTIFVLWYMGWYRQAPGKERELVATINDGANTYYADSVKGRFTINRDNANSTVYMKMNSLIPEDTAVYYCAVYAIIVWGLGYWGQGTQVTVSS”, the “polyreactivity (PSR sort gate)” value is on record as “high polyreactivity”.

Turning to “QVQLQECGGGLVQAGGSLRLSCAASGTFSNSVKWLYCHAPGKEREFVATIGVGGSTNYADSVKGRFTISRDNAKYTVYLQMNSLKPEDTAVYHCAAYGAASNFHYYRGQGTQVTVSS”, the “polyreactivity (PSR sort gate)” value was “low polyreactivity”.

As to “QVQLQECGGGLVQAGGSLRLSCAASGTFSNSVKWLYCQAPGKEREFVATIGVGGSTNYADSVIGRFTISRDNAKNTVYLQMNSRKQEDTAVYHCAAYGAASNFHYYRGQGTQVTVSS”, the “polyreactivity (PSR sort gate)” value is recorded as “low polyreactivity”.

For “QVQLQEGGGGLVQAGVSLRLSCAASGYISYGDVMGWNRQAPGEERELVASIGLDATTNYADSVKGRFTISRDNAKISVYLQMNSLKPEATAVYYCAADVGSGVLCGYWGQGTQMTVSS”, the “polyreactivity (PSR sort gate)” value is given as “high polyreactivity”.

On to “QVQLQEIGGSLVQAGGSLRLSGAASGNILVLPPGQVSPGAERELDATITGGSITYYADSVKGRFTISRDNAKNTVYLQMNSLKPEDTAVYYCAAVSLRKSYGYNYWGQGTLVTVSS”, for which the “polyreactivity (PSR sort gate)” value was “high polyreactivity”.

Turning to “QVQLQERAGGLVQAGGSLRQRCSASGYISCDASMGWYRQAPGKERELAASITKGSSTKYADIVKGRFTFRDNAKNTVYLKMNSLKPEDTAVCYCAVTYPYWGDYTYWGQGTQVTVSS”, the “polyreactivity (PSR sort gate)” value is on record as “low polyreactivity”.

As to “QVQLQERAGGLVQAGGSLRQSCAASGYRSLAQTIGWYRQAPGKEREFVASIALGSSTYYTDSVKGSFTISRDNAKTTVYLQMNSLKPEATAVYYCNARDDVYLITPYFLVYVNLDYWGQGTQVTVSS”, the “polyreactivity (PSR sort gate)” value is on record as “low polyreactivity”.

Turning to “QVQLQERGGGLVQAGASLRQSCAASGTIFTARFMGWYRQAPGKERELVATITDGGNTNDADSVKGRFTSSRDNAKITVYLQMNSLKPEYAAVYYCAAGEVDNDTLLYWGQGSQVTVSS”, the “polyreactivity (PSR sort gate)” value is given as “low polyreactivity”.

On to “QVQLQERGGGLVQAGGSLRLSCAASGSIFQYTLMGWYLQAPGKEREFVAAITDGANTNYADSVKGRFSISRDNAKNTVNLQMNSLKPEETAVYYCATDYGYTDRVTSGFDYWGLGTQVTVSS”, for which the “polyreactivity (PSR sort gate)” value is recorded as “low polyreactivity”.

Regarding “QVQLQESAGGLVQAGGSLRLRCSASGYISCDASMGWYRQAPGKERELAASITKGSSTNYADSVKGRFTIRDNAKNTVYLQMNSLKPEDTSVCYCAVTYPYWGDYTYWGQGTQVTVSS”, the “polyreactivity (PSR sort gate)” value is recorded as “low polyreactivity”.

Consider “QVQLQESAGGLVQAGGSLRQSCEASGYIIPYYSMGWYRQSPGKERGLVACIAAGTTTNYADSVNGRFTISRDNEKNTVYLQMNSLNPEDAAVYFCAALNAFNTGHWYWGQGTQVTVSS”, for which the “polyreactivity (PSR sort gate)” value is reported as “low polyreactivity”.

Regarding “QVQLQESCGGLVQAGGCLRLSCAASGTIFDPDYMGWYHQAPCKERELVASISLGRITYYADSVKGRFTINRDNAKNTVYLQMNSLKPEDTAVYYCAVRVETIYYYSYWGQGTQVTVRS”, the “polyreactivity (PSR sort gate)” value is given as “high polyreactivity”.
